# ± gives the uncertainty stated by the source.
# Columns and labels:
# [1] = amyloid nucleation score (Sup35N fusion, yeast selection) (log enrichment); library NNK1; higher = more nucleation; inactive = no reads after selection
# Procedure, shortened: (§1)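 Nucleation score is defined as the DiMSum log enrichment of output over input reads, with centring on the mode score of non-aggregating sequences. A minimum of 100 input reads was required for each sequence. Reads came from Illumina sequencing of plasmid inserts from psi-negative yeast expressing Sup35N fused to peptides of 20 random codons, induced with 100 μM copper sulfate for 24 hours and grown 7 days at 30°C on medium lacking adenine and uracil.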
# [2] = amyloid nucleation score (Sup35N fusion, yeast selection) (log enrichment); library NNK2; higher = more nucleation; inactive = no reads after selection
# Procedure, shortened: as §1
Substance,amyloid nucleation score [1],amyloid nucleation score [2]
AALTCLCCWAFFVISKNNYQ,0.995 ± 0.58,
AATGRTVCESREWGKVLAVC,-0.459 ± 0.38,
AAVRALLYRCVVHVRFFFKE,1.06 ± 0.54,
AAWDLVVGQ,-0.473 ± 0.32,
AAWMWWTLLSTY,-0.377 ± 0.37,
ACFWYTL,0.024 ± 0.47,
ACNTSSIYALTFVCHLSVGV,4.67 ± 0.057,
ACVMRIDAFFMTISVRLLRL,1.79 ± 0.3,
ADFFESEQVHYKSELAKNHG,0.049 ± 0.69,
ADFKEFECDLARPLLGIKFL,0.054 ± 0.91,
ADNFIGVVYTMLVRRYMPNS,-1.65 ± 1.2,
ADYTQCRLYVM,-0.132 ± 0.21,
AELVQFSCLKLSFKSSENPS,3.06 ± 0.21,
AESWHVGKS,-0.593 ± 0.59,
YDGFDITYSYDLSVVFCVDR,,0.046 ± 0.44
YDHDLINRKITSGHKVYFIG,,-0.586 ± 0.49
YDPVAVF,,-0.945 ± 0.43
YDRDCTRPCSPSSRGNFRDE,,inactive
YDSTVFTITWAKWDVYSLST,,2.36 ± 0.096
YDVSFTFLWW,,0.242 ± 0.61
YEGLF,,inactive
YEPSATEPRLRRFHGEARLL,,0.32 ± 0.65
YERMWCHLLVLRPNKQK,,0.697 ± 0.81
YESHLCVFTCWTFRFLNVMD,,-1.01 ± 1.1

Substance,amyloid nucleation score [1],amyloid nucleation score [2]
YEYVSYCVSDFRYLLQTV,,0.436 ± 0.66
YFFSISWTCYFR,,3.27 ± 0.044
YFLKSYGAFSMFQM,,3.19 ± 0.15
YFLVKFSSNTFIVWTHRYFQ,,0.057 ± 1.1
YFMVHIMGTVKIGRW,,3.13 ± 0.098
YFNSLTQISSFRKFSRPLHS,,0.033 ± 0.38
YFRAYWTCSEC,,inactive
YFSWTWVVFNAFNEVRFWTW,,-1.59 ± 0.61
YFVFHDQKSTNLGWIFVFCR,,0.108 ± 0.65
YFVGWCIYEVNAYISVPVVF,,inactive
YFWFYTV,,-0.691 ± 0.34
YGAYVYINSFCKYNIIRSRS,,6.034 ± 0.043
YGFCAFTHSC,,-0.554 ± 1
YGLAC,,2.44 ± 0.072
YGMKTGVNIFVVDVEMVKRS,,5.93 ± 0.068
YGPICEYFQGCEALSWWSTC,,0.39 ± 0.2
YGPSCSICPVVVIPSF,,inactive
YGRLECISWCPISIHCGGAR,,3.47 ± 0.11
YGSSGK,,-0.362 ± 0.38
YGVYVRCYLDGSLWWNFTAW,,inactive
YHCRSEVTCWLEYDG,,0.712 ± 0.28
YHCVEYLGARL,,0.083 ± 0.63
YHSFLWKINSCAVMMEDSTG,,0.811 ± 0.67
YHYGNGVAWDMTRKPRHHFV,,-0.243 ± 0.41

Substance,amyloid nucleation score [1],amyloid nucleation score [2]
YICSFYEADRSTRCFLIFFF,,-1.23 ± 0.44
YIFSSVNERLCPALNGWHLD,,inactive
YILAFVILAMEAWHRV,,3.68 ± 0.086
YILLWVYIHDGLAWSTLLDW,,0.757 ± 0.6
YILNMFKETLDVLVLKRNCF,,-1.18 ± 1.1
YIMSFRY,,-0.592 ± 0.79
YINSMLSSYFDSLWEGSKSR,,-0.109 ± 0.27
YIPNDCTTRDCLTYMMSWMF,,-0.077 ± 0.63
YISCYCRSSFRMLSVVSDYR,,2.54 ± 0.077
YISVKMRSGRTSTLSDCVKA,,3.83 ± 0.076
YITFSDRLWTLLLWCRILWL,,-0.002 ± 1
YITYSREAETCIFVKGDFS,,-0.153 ± 1.1
YIVCYAVSGLVWSIGSHEGM,,1.86 ± 0.13
YIWLDAYFTESGILYYLMIR,,inactive
YIWYFKMEVDYVLMMYAVAG,,0.183 ± 1
YIYETTLCYNTIPGL,,-0.848 ± 0.29
YKGQCSILLGRVRWDFSSSS,,-1.02 ± 0.78
YKHFSGFLDFQVPAFSGYVS,,inactive
YKILQFETSFRT,,-0.977 ± 0.63
YKLAFQSYIDGLLIL,,inactive
YKLGVKPMKAG,,-0.224 ± 0.79
YKNVAFCFVRMFFEGHSINC,,-1.45 ± 0.76
YKSSGLLSYTSIGNVDIYFV,,6.26 ± 0.079
YKSVERTASRMIQIEVFWEY,,inactive

Substance,amyloid nucleation score [1],amyloid nucleation score [2]
YKTFFLVASAKVNEAPGQRG,,inactive
YKWVVPDWSWVLEMALSLPT,,0.346 ± 0.5
YLCVYIRLYFMPLRYWKKMC,,-0.606 ± 0.44
YLDAHILHE,,4.54 ± 0.087
YLFDLVFILEQYFWL,,2.85 ± 0.049
YLGAGPSNILCHPFISAGSN,,inactive
YLLFTMRNLLILGRQGRSSL,,-0.905 ± 0.45
YLLVLFGSGTYITPTLLRIN,,-1.55 ± 0.49
YLNGLTYWDIMLPWAII,,-0.324 ± 1.1
YLRTYLW,,-0.208 ± 0.49
YLRVKMPVIRVIVR,,inactive
YLSAAVKTEVV,,0.619 ± 0.37
YLSDNLIAFWIVHNQWMIMA,,6.005 ± 0.035
YLTFLNASTSRYKLSLVPRR,,4.11 ± 0.082
YLVGCKDSRTSLSSLICIRL,,8.842 ± 0.03
YLVPFWVVDCFDGLD,,0.072 ± 1.1
YLVYKMNNGCLCNIFAPVTE,,8.303 ± 0.064
YMIFCLSIYEDDEALGPTER,,-0.287 ± 0.21
YMRMIYCMFRGNCWVVIVEA,,0.216 ± 0.49
YMSNPSELWKNWILVHYHFC,,3.56 ± 0.076
YMSPAH,,0.606 ± 0.6
YMTVSRVHISRVCCVYTLNV,,5.44 ± 0.064
YMWVCACRMSLIHGLSGHHD,,0.536 ± 0.46
YNFDYTLMNYPLKAVPSEW,,8.286 ± 0.053

Substance,amyloid nucleation score [1],amyloid nucleation score [2]
YNISDLSMSYMAIRAYDSGS,,-1.38 ± 0.62
YNLSVFQVITAPHEGDNRAW,,4.55 ± 0.049
YNMMSKFNIFGYYACKSSWK,,1.27 ± 0.14
YNPLLIV,,0.082 ± 0.56
YNQRTFVSVSYEWTSGPWVC,,0.334 ± 0.33
YNSNFPTLYWG,,inactive
YNSPSDWDTIISSIILF,,-1.21 ± 1.1
YNTISDWTSLEPYTLVRVLL,,1.91 ± 0.064
YNVTYLLRCFSILVSRVLKV,,inactive
YPKSLV,,-0.698 ± 1.1
YPVCGCRLSRLVHNSTVDKV,,0.639 ± 0.46
YQFTGFLLGRVIASIIRHGV,,0.023 ± 0.45
YQSVRK,,-0.022 ± 0.55
YRAAWSSAAG,,-0.137 ± 1.1
YRDNCMRNIENSVT,,-0.802 ± 0.54
YREACCCNSFACPGATDVGP,,9.188 ± 0.046
YRFAGYVTPRFGYKSHNISL,,-1.22 ± 1.1
YRGSGLMNTSDFVSVLALVN,,inactive
YRLAWGH,,-0.363 ± 1.1
YRTCNIDGL,,inactive
YRVDSHWANLVLKTSMIWTT,,-0.829 ± 0.28
YRWNYWFVVMMRPSSEDYLR,,4.951 ± 0.047
YSAVKCFPYRLPLNYAQIGA,,0.358 ± 0.53
YSGAYRLHYGFHIIICVCRW,,3.21 ± 0.066

Substance,amyloid nucleation score [1],amyloid nucleation score [2]
YSGLKCALCRCC,,1.94 ± 0.3
YSGWFFCNFISLWV,,6.529 ± 0.057
YSGWVSDS,,inactive
YSHATFSPASNSYQKG,,0.146 ± 0.56
YSHSLHVIQKSFFCITVFVM,,5.28 ± 0.08
YSIYEYG,,1.41 ± 0.15
YSKDSMDSYMMIMFGSVACH,,0.681 ± 0.6
YSLWLVVCYLLVCWNINCGT,,0.366 ± 0.44
YSNSPCVIYNMKGRGSLLSH,,-1.6 ± 0.64
YSRGWVHVI,,0.384 ± 0.56
YSSTTITFYNWDRVTSRRLA,,-0.832 ± 0.44
YSWSRVKFNSL,,2.53 ± 0.076
YSYSIRLRCFASRYIFVRVR,,0.436 ± 0.66
YTFCKHDVYAISLRFVLAPY,,7.304 ± 0.035
YTGHFTSC,,-0.496 ± 0.48
YTMGLVSFCLQLGSASFDI,,3.56 ± 0.12
YTRSAGGLISL,,-0.774 ± 1.1
YTRWWLWWGFNNCWRYWSEK,,-0.96 ± 0.55
YTSGSTGRDLLPNMKRGSVV,,4.36 ± 0.12
YTVNCCIRANANGAFFSKVQ,,3.69 ± 0.053
YVAAGLWVMWTGALKMRQAG,,0.954 ± 0.66
YVCTRWVAYYLEWYGLDGPV,,0.665 ± 0.45
YVFIYESPYSSRSCPNALVS,,-0.011 ± 0.46
YVFSIYGPFLLVEGLSTPFR,,4.49 ± 0.095

Substance,amyloid nucleation score [1],amyloid nucleation score [2]
YVGLV,,-0.23 ± 0.22
YVLGEHRIRCGEDYV,,1.77 ± 0.31
YVNMAVNLTTDGQMTWNSRT,,6.65 ± 0.035
YVNPKVAWAGIDSAAEEDSD,,0.047 ± 0.49
YVRYFSIQTGHV,,inactive
YVSLNNRQKFLAARLPKLEG,,-0.51 ± 0.64
YVWIQTLYALWYFSLRFAGL,,-0.413 ± 0.49
YWFQKLEGSRHDMV,,-0.121 ± 1.1
YWFVGTPCAVRVGWFSQPHR,,0.612 ± 0.45
YWGSFGDKLKLLNMCPLSLD,,inactive
YWIRIRIQCFQGSIEQDTER,,4.96 ± 0.066
YWLVRMVHGRAWPIFEENCQ,,-0.01 ± 1
YWNDSSRYGQVGVEYC,,0.49 ± 0.8
YWSYSLGGSQEYSGHTMA,,-0.135 ± 0.35
YYACNKAND,,-0.607 ± 1
YYDLRAATESDVRHGTADHR,,0.195 ± 0.37
YYGLVQRLFSCVCYYVLTF,,inactive
YYGNFHLMSWVWSIGPCSIY,,4.88 ± 0.11
YYGSGNPSQGVVSEWLVRDA,,0.571 ± 0.36
YYLSFCVSNAGAPGMDLMGQ,,0.328 ± 0.65
YYMTRVSPFQSFIVIMGASQ,,1.89 ± 0.24
YYNSATPTDDGWWKISG,,-0.574 ± 1
YYWGAGTQHGYLFTFVGGND,,-0.326 ± 1
